Data taken from patent US12202907B2, “Nucleic acids encoding and methods of producing proteins comprising antibody chains” (Innate Pharma, priority 2018, dated 2025).

Columns and labels:
[1] = Stability in reference formulation (storage, freeze thaw); assay type: physicochemical; conditions: about 7 mg/mL, pH 6.0 histidine/sucrose/NaCl/PS80, +5° C. and +40° C., up to 1 month
Experimental: (§1) Antibodies mAb1-24 and prior art anti-CD39 antibody BY40, all produced as human IgG1 isotypes with L234A/L235E/G237A/A330S/P331S substitutions were tested for stability in the following reference formulation at a concentration of approximatively 7 mg/mL: pH 6.0; histidine buffer (10 mM); sucrose (200 mM); NaCl (50 mM); Polysorbate 80 (PS80) (0.2 g/L). The stability of the formulations was monitored in two storage conditions (at +5° C.±3° C. and at +40±3° C. For each study, 3 time points were performed: T0, T15D (15 days) and T1M (1 month). A freeze thaw (F/T) and a thermal shift stability assay (TSSA) were conducted for the format comparison. To perform F/T cycles, the samples were frozen at least 2 hours at −20° C. and thawed at least 1 hour at room temperature, the F/T cycle is repeated three times and samples are tested 24 h after the last Freeze/Thaw cycle. At each time point, the following tests were performed: • Particulate Matter (MFI) • Visual Inspection (Appearance) • Impurities (SE-HPLC) • Turbidity (400 nm) • Protein Concentration (280 nm) (performed with Nanodrop, Thermo Fisher Scientific Inc.)

[2] = target: T1, human Ramos lymphoma cells (CD39) (Homo sapiens, UniProt P49961); assay: Antibody titration on Ramos cells by flow cytometry; assay type: binding; conditions: comparison
T1 construct: cells that endogenously express CD39 at their surface; host or cells: Ramos
T1 sequence (P49961 1-510): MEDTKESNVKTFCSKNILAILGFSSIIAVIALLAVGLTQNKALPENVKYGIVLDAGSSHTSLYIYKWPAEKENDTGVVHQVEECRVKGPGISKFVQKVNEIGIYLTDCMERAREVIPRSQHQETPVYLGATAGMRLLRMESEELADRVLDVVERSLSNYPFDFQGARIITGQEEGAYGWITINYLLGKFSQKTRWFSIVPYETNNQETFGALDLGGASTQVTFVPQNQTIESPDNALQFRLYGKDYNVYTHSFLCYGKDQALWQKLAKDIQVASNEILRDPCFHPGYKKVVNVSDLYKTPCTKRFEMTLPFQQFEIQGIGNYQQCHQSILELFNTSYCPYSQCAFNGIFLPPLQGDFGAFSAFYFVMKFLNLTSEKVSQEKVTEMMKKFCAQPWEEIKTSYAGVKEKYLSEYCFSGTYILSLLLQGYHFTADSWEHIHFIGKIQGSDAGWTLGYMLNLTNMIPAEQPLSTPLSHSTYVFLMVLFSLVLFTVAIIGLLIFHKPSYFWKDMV
Experimental: Antibody I-394 was tested in two repeated experiments for binding to CHO cells expressing human CD39, CHO cells expressing cynomolgus (Macaca fascicularis) CD39, CHO cells expressing murine CD39, and human Ramos lymphoma cells (ATCC™, reference CRL-1596). Cells were incubated with various concentration of unlabeled anti-CD39 antibody from 30 μg/ml to 5×10^−4 μg/ml, for 30 minutes at 4° C. After washes, cells were incubated with Goat anti-mouse H+L labeled secondary antibody for 30 min at 4° C.

[3] = Aggregation temperature (thermal shift stability assay); assay type: physicochemical; conditions: human IgG1 with L234A/L235E/G237A/A330S/P331S
Experimental: as §1

[4] = target: T2, soluble recombinant human CD39 protein (Homo sapiens, UniProt P49961); assay: Inhibition of the enzymatic activity of soluble CD39 (Cell Titer Glo, cell-free); assay type: biochemical; conditions: humanized variants
T2 construct: made in house; host or cells: CHO cells
T2 sequence (P49961 with tags, fused parts or gaps): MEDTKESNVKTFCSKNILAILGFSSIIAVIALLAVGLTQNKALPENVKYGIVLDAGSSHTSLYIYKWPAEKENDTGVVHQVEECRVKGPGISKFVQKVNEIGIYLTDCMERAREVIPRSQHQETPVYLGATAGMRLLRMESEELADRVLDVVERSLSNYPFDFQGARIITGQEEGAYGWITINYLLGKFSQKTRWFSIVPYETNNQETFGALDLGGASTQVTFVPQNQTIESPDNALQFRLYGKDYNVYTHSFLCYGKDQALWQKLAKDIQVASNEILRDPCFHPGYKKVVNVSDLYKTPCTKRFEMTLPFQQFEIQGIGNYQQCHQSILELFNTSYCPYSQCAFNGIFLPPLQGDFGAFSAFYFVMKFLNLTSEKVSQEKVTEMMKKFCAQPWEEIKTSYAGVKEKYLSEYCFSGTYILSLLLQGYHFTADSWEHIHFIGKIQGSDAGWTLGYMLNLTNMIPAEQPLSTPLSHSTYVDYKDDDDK
Experimental: The inhibition by antibodies of the enzymatic activity of soluble CD39 protein produced was evaluated using Cell Titer GIo™ (Promega, reference G7571) that allows assessment of ATP hydrolysis through use of a reagent that generates a luminescent signal proportional to the amount of ATP present. In this way, inhibition of the soluble-CD39-meidated ATP hydrolysis can be assessed. Briefly, dose ranges of anti-CD39 antibodies from 100 μg/ml to […] were incubated with 400 ng/ml of soluble recombinant human CD39 protein having the amino acid sequence described in the Methods section (SEQ ID NO: 44), for 1 h at 37° C. 20 μM ATP was added to the plates for 30 additional minutes at 37° C. before addition of CTG (Cell Titer Glo) reagent. Emitted light was quantified using an Enspire™ luminometer after a short incubation period of 5 min in the dark. Anti-CD39 antibody efficacy was determined by comparing emitted light in presence of antibody with ATP alone (maximal light emission) and ATP together with soluble CD39 protein (minimal light emission).

[5] = target: T3, CD39 expressed by Ramos human lymphoma cells (Homo sapiens, UniProt P49961); assay: Inhibition of the enzymatic activity of cellular CD39 in Ramos cells; assay type: cell-based; conditions: Ramos cells
T3 construct: cells that endogenously express CD39 at their surface; host or cells: Ramos
T3 sequence (P49961 1-510): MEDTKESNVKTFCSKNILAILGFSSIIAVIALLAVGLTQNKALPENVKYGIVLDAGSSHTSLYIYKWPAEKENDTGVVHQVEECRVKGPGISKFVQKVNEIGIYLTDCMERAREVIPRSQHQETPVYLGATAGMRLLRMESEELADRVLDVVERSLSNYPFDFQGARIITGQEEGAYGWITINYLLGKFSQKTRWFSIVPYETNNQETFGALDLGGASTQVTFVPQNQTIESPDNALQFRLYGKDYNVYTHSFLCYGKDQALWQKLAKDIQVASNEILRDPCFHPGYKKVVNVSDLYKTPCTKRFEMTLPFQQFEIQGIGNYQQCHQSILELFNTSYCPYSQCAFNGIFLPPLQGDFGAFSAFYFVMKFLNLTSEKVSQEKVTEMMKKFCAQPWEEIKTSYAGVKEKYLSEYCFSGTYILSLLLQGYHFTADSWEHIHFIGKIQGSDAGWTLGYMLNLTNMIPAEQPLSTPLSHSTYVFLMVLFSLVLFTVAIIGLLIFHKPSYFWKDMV
Experimental: The inhibition of the CD39 enzymatic activity in CD39-expressing cells by antibodies was evaluated using Cell Titer GIo™ (Promega, reference G7571) that allows assessment of ATP hydrolysis through use of a reagent that generates a luminescent signal proportional to the amount of ATP present. The assay was thus designed to permit assessment of the inhibition of ATP hydrolyzed by CD39 in the cell culture supernatant. Briefly, 5×10^4 Ramos human lymphoma cells, 5×10^3 human CD39−, cynomolgus CD39—and mouse CD39− expressing CHO cells, were incubated 1 hour at 37° C. with anti-CD39 antibodies from 30 μg/ml to 5×10^−4 μg/ml. Cells were then incubated with 20 μM ATP for 1 additional hour at 37° C. Plates were centrifuged for 2 min at 400 g and 50 μl cell supernatant are transferred in a luminescence microplate (white wells). 50 μl CellTiter-Glo™ Reagent (CTG) was added to the supernatant and emitted light was quantified after a 5 min incubation in the dark using a Enspire™ luminometer. Anti-CD39 antibody efficacy was determined by comparing emitted light in presence of antibody with ATP alone (maximal light emission) and ATP together with cells (minimal light emission).

Row | Molecule | physicochemical stability [1] | binding to Ramos cells relative to I-394 [2] | Aggregation temperature (TAgg) [3] [°C] | potency for inhibition of soluble CD39 relative to parental I-394 [4] | potency at blocking CD39 enzymatic activity relative to other antibodies [5]
1 | mAb8: humanized I-394 variant, VH H2 (SEQ ID NO: 29), VL L1 (SEQ ID NO: 36) (antibody, V domains shown) VH: QVQLVQSGAEVKKPGASVKVSCKASGYTFTDYNMHWVRQAPGQRLEWMGYIVPLNGGSTFNQKFKGRATITVDTSASTAYMELSSLRSEDTAVYYCARGGTRFAYWGQGTLVTVSS VL: DIVMTQSPDSLAVSLGERATINCRASESVDNFGVSFMYWFQQKPGQPPKLLIYGASNQGSGVPDRFSGSGSGTDFTLTISSLQAEDVAVYYCQQTKEVPYTFGGGTKVEIK | good physicochemical stability | best binding | ~70 | – | –
2 | mAb9: humanized I-394 variant, VH H2 (SEQ ID NO: 29), VL L1* (SEQ ID NO: 37) (antibody, V domains shown) VH: QVQLVQSGAEVKKPGASVKVSCKASGYTFTDYNMHWVRQAPGQRLEWMGYIVPLNGGSTFNQKFKGRATITVDTSASTAYMELSSLRSEDTAVYYCARGGTRFAYWGQGTLVTVSS VL: DIVMTQSPDSLAVSLGERATINCKASESVDNFGVSFMYWFQQKPGQPPKLLIYGASNQGSGVPDRFSGSGSGTDFTLTISSLQAEDVAVYYCQQTKEVPYTFGGGTKVEIK | good physicochemical stability | best binding | ~70 | – | –
3 | mAb14: humanized I-394 variant, VH H3 (SEQ ID NO: 30), VL L1 (SEQ ID NO: 36) (antibody, V domains shown) VH: QVQLVQSGAEVKKPGASVKVSCKASGYTFTDYNMHWVRQAPGQRLEWIGYIVPLNGGSTFNQKFKGRATITVDTSASTAYMELSSLRSEDTAVYYCARGGTRFAYWGQGTLVTVSS VL: DIVMTQSPDSLAVSLGERATINCRASESVDNFGVSFMYWFQQKPGQPPKLLIYGASNQGSGVPDRFSGSGSGTDFTLTISSLQAEDVAVYYCQQTKEVPYTFGGGTKVEIK | – | – | – | comparable to the parental I-394 antibody | –
4 | mAb15: humanized I-394 variant, VH H3 (SEQ ID NO: 30), VL L1* (SEQ ID NO: 37) (antibody, V domains shown) VH: QVQLVQSGAEVKKPGASVKVSCKASGYTFTDYNMHWVRQAPGQRLEWIGYIVPLNGGSTFNQKFKGRATITVDTSASTAYMELSSLRSEDTAVYYCARGGTRFAYWGQGTLVTVSS VL: DIVMTQSPDSLAVSLGERATINCKASESVDNFGVSFMYWFQQKPGQPPKLLIYGASNQGSGVPDRFSGSGSGTDFTLTISSLQAEDVAVYYCQQTKEVPYTFGGGTKVEIK | – | – | – | comparable to the parental I-394 antibody | –
5 | mAb23: humanized I-394 variant, VH H4* (SEQ ID NO: 34), VL L1 (SEQ ID NO: 36) (antibody, V domains shown) VH: QVQLVQSGAEVKKPGASVKVSCKASGYTFTDYNMHWVRQAPGQRLEWIGYIVPLNGGSTFSQKFQGRATITVDTSARTAYMELSSLRSEDTAVYYCARGGTRFAYWGQGTLVTVSS VL: DIVMTQSPDSLAVSLGERATINCRASESVDNFGVSFMYWFQQKPGQPPKLLIYGASNQGSGVPDRFSGSGSGTDFTLTISSLQAEDVAVYYCQQTKEVPYTFGGGTKVEIK | – | – | – | – | slightly lower potency than mAb20 and mAb21
6 | mAb24: humanized I-394 variant, VH H4* (SEQ ID NO: 34), VL L1* (SEQ ID NO: 37) (antibody, V domains shown) VH: QVQLVQSGAEVKKPGASVKVSCKASGYTFTDYNMHWVRQAPGQRLEWIGYIVPLNGGSTFSQKFQGRATITVDTSARTAYMELSSLRSEDTAVYYCARGGTRFAYWGQGTLVTVSS VL: DIVMTQSPDSLAVSLGERATINCKASESVDNFGVSFMYWFQQKPGQPPKLLIYGASNQGSGVPDRFSGSGSGTDFTLTISSLQAEDVAVYYCQQTKEVPYTFGGGTKVEIK | – | – | – | – | slightly lower potency than mAb20 and mAb21
